Patent publication US20210340268A1 (GENERAL HOSPITAL, published 2021)

Key:
[1] = target: T1, epitope containing residues 56-60 of SEQ ID NO: 7 within human TNFR2 (KCSPG) (human); assay: epitope mapping analysis (peptide ELISA)
T1 construct: Motif within CRD1 of TNFR2
T1 peptide: KCSPG

[2] = target: T2, recombinant human TNFR2 (human tumor necrosis factor receptor 2) (human, UniProt P20333 23-257); assay: SPR (Biacore 3000), biotinylated antibody captured on streptavidin, recombinant human TNFR2 in solution
T2 sequence: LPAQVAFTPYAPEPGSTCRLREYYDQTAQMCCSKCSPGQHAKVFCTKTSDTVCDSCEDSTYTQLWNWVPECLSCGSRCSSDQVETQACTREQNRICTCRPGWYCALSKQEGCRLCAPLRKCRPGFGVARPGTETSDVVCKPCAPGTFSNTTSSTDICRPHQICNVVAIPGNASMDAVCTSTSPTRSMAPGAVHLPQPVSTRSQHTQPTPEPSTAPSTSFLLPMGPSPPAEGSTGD
Procedure: The affinities of antagonistic TNFR2 antibodies for recombinant human TNFR2 were measured using BIACORE™ Analysis Services (Precision Antibody). Briefly, the antibody was biotinylated at a 5:1 stoichiometric ratio using biotinyl-LC-LC-[…] (Thermo-Fisher) in PBS. Excess biotinylation reagent was removed by centrifugation chromatography and the biotinylated antibody was captured on 3000 RU of streptavidin surface to a level of 100 RU. […] Analysis of the kinetics of antigen binding was performed at a flow of 60 μL/min with 2 min injections. Antibodies were injected at a concentration of 1 mg/ml to the final capture of 100 RU. The instrument used was BIACORE™ 3000 with the BioCap chip (GE Healthcare). Double reference method was used for analysis. Reference channel contained the identical level of streptavidin.

B1: TNFRAB1 (antibody, V domains shown)
VH: EVQLQESGGGLVKPGGSLKLSCAASGFTFSSYVMSWVRQTPEKRLEWVATISSGGSYTYYPDSVKGRFTISRDNAKNTLYLQMSSLRSEDTAMYYCARQRVDGYSSYWYFDVWGAGTAVTVSS
VL: DIVLTQSPAIMSASPGEKVTITCSASSSVYYMYWFQQKPGTSPKLWIYSTSNLASGVPVRFSGSGSGTSYSLTISRMEAEDAATYYCQQRRNYPYTFGGGTKLEIKR
notes: Murine monoclonal antibody with two heavy and two light chains; also called antagonistic TNFR2 antibody TNFRAB1
Does B1 bind [1]?
Result: no binding

What about the Kd [2] of the same binder?
The Kd was ~44.4 pM.

And the koff [2]?
Its koff is 0.000221 s⁻¹.

What about the kon [2] of the same binder?
The kon was 4.98e+06 M⁻¹ s⁻¹.
